Measurements published in the supplement of paper PMC10567573.

B1: TMEM40 (parent)
chain: YGETDFHKQDGKAGLFSQEQYERN

Variants of: B1
Experiment: protein stability index of a GFP-peptide fusion (GPS, HEK-293T) (PSI 1-6); higher = more stable
Settings: c terminus: a fixed tail appended
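Further: lentivirally expressed fusions sorted by FACS into six bins by GFP to DsRed ratio, PSI derived from sequencing read proportions per bin multiplied by bin number.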

Variant	protein stability index
YGETDFHKQDSKAGLFSQEQYERN	4.55
YGETDFHKQDCKAGLFSQEQYERN	3.77
YGETDFHKQDWKAGLFSQEQYERN	3.2
YGETDFHKQDMKAGLFSQEQYERN	4.58
YGETDFHKQDDKAGLFSQEQYERN	4.5
YGETDFHKQDRKAGLFSQEQYERN	4.08
YGETDFHKQDHKAGLFSQEQYERN	4.16
YGETDFHKQDYKAGLFSQEQYERN	3.75
YGETDFHKQDPKAGLFSQEQYERN	3.46
YGETDFHKQDTKAGLFSQEQYERN	3.68
YGETDFHKQDKKAGLFSQEQYERN	4.16
YGETDFHKQDEKAGLFSQEQYERN	4.68
YGETDFHKQDIKAGLFSQEQYERN	3.9
YGETDFHKQDQKAGLFSQEQYERN	4.04
YGETDFHKQDAKAGLFSQEQYERN	4.25
YGETDFHKQDFKAGLFSQEQYERN	3.86
YGETDFHKQDVKAGLFSQEQYERN	4.21
YGETDFHKQDNKAGLFSQEQYERN	4.32
YGETDFHKQDGKASLFSQEQYERN	4.68
YGETDFHKQDGKAILFSQEQYERN	3.93
YGETDFHKQDGKANLFSQEQYERN	4.47
YGETDFHKQDGKAALFSQEQYERN	4.02
YGETDFHKQDGKARLFSQEQYERN	3.84
YGETDFHKQDGKAKLFSQEQYERN	4.32

Variant	protein stability index
YGETDFHKQDGKAMLFSQEQYERN	4.45
YGETDFHKQDGKATLFSQEQYERN	4.06
YGETDFHKQDGKALLFSQEQYERN	3.86
YGETDFHKQDGKAYLFSQEQYERN	3.74
YGETDFHKQDGKAHLFSQEQYERN	4.06
YGETDFHKQDGKACLFSQEQYERN	4.18
YGETDFHKQDGKAVLFSQEQYERN	4.09
YGETDFHKQDGKAPLFSQEQYERN	4.34
YGETDFHKQDGKAELFSQEQYERN	4.63
YGETDFHKQDGKADLFSQEQYERN	4.79
YGETDFHKQDGKAQLFSQEQYERN	4.29
YGETDFHKQDGKAFLFSQEQYERN	3.69
YGETDFHKQDGKAWLFSQEQYERN	2.72
YGETDFHKDDGKAGLFSQEQYERN	5.05
YGETDFHKHDGKAGLFSQEQYERN	3.75
YGETDFHKYDGKAGLFSQEQYERN	3.37
YGETDFHKIDGKAGLFSQEQYERN	3.71
YGETDFHKMDGKAGLFSQEQYERN	3.17
YGETDFHKNDGKAGLFSQEQYERN	4.53
YGETDFHKVDGKAGLFSQEQYERN	3.6
YGETDFHKTDGKAGLFSQEQYERN	3.85
YGETDFHKFDGKAGLFSQEQYERN	3.38
YGETDFHKWDGKAGLFSQEQYERN	2.99
YGETDFHKSDGKAGLFSQEQYERN	4.33

Variant	protein stability index
YGETDFHKLDGKAGLFSQEQYERN	3.49
YGETDFHKPDGKAGLFSQEQYERN	3.56
YGETDFHKGDGKAGLFSQEQYERN	3.73
YGETDFHKRDGKAGLFSQEQYERN	4.13
YGETDFHKEDGKAGLFSQEQYERN	4.78
YGETDFHKKDGKAGLFSQEQYERN	3.7
YGETDFHKADGKAGLFSQEQYERN	3.96
YGETDFHKQDGKAGLFFQEQYERN	3.1
YGETDFHKQDGKAGLFEQEQYERN	4.51
YGETDFHKQDGKAGLFMQEQYERN	3.97
YGETDFHKQDGKAGLFKQEQYERN	3.44
YGETDFHKQDGKAGLFHQEQYERN	3.54
YGETDFHKQDGKAGLFGQEQYERN	3.94
YGETDFHKQDGKAGLFCQEQYERN	4.07
YGETDFHKQDGKAGLFIQEQYERN	3.81
YGETDFHKQDGKAGLFDQEQYERN	3.98
YGETDFHKQDGKAGLFAQEQYERN	3.79
YGETDFHKQDGKAGLFLQEQYERN	3.35
YGETDFHMQDGKAGLFSQEQYERN	3.71
YGETDFHAQDGKAGLFSQEQYERN	4.53
YGETDFHLQDGKAGLFSQEQYERN	4.29
YGETDFHSQDGKAGLFSQEQYERN	4.66
YGETDFHTQDGKAGLFSQEQYERN	4.46
YGETDFHRQDGKAGLFSQEQYERN	3.86

Variant	protein stability index
YGETDFHYQDGKAGLFSQEQYERN	3.96
YGETDFHCQDGKAGLFSQEQYERN	4.5
YGETDFHWQDGKAGLFSQEQYERN	2.36
YGETDFHHQDGKAGLFSQEQYERN	4.18
YGETDFHFQDGKAGLFSQEQYERN	3.77
YGETDFHPQDGKAGLFSQEQYERN	4.7
YGETDFHVQDGKAGLFSQEQYERN	4.34
YGETDFHDQDGKAGLFSQEQYERN	5.12
YGETDFHIQDGKAGLFSQEQYERN	3.89
YGETDFHEQDGKAGLFSQEQYERN	4.67
YGETDFHGQDGKAGLFSQEQYERN	4.31
YGETDFHQQDGKAGLFSQEQYERN	4.66
YGETDFHNQDGKAGLFSQEQYERN	4.01
YGETDFHKQDGKTGLFSQEQYERN	4.28
YGETDFHKQDGKQGLFSQEQYERN	3.93
YGETDFHKQDGKWGLFSQEQYERN	3.87
YGETDFHKQDGKVGLFSQEQYERN	4.27
YGETDFHKQDGKNGLFSQEQYERN	4.54
YGETDFHKQDGKGGLFSQEQYERN	4.08
YGETDFHKQDGKEGLFSQEQYERN	4.33
YGETDFHKQDGKRGLFSQEQYERN	3.96
YGETDFHKQDGKMGLFSQEQYERN	3.65
YGETDFHKQDGKFGLFSQEQYERN	3.83
YGETDFHKQDGKDGLFSQEQYERN	4.28

Variant	protein stability index
YGETDFHKQDGKKGLFSQEQYERN	4.04
YGETDFHKQDGKIGLFSQEQYERN	4.03
YGETDFHKQDGKYGLFSQEQYERN	3.41
YGETDFHKQDGKSGLFSQEQYERN	3.83
YGETDFHKQDGKHGLFSQEQYERN	4.21
YGETDFHKQDGKCGLFSQEQYERN	3.28
YGETDFHKQDGKLGLFSQEQYERN	4.07
YGETDFHKQDGKPGLFSQEQYERN	3.54
YGETDFHKQDGKAGRFSQEQYERN	4.43
YGETDFHKQDGKAGDFSQEQYERN	5.02
YGETDFHKQDGKAGKFSQEQYERN	4.49
YGETDFHKQDGKAGSFSQEQYERN	5.04
YGETDFHKQDGKAGHFSQEQYERN	4.02
YGETDFHKQDGKAGFFSQEQYERN	3.32
YGETDFHKQDGKAGYFSQEQYERN	3.84
YGETDFHKQDGKAGGFSQEQYERN	4.73
YGETDFHKQDGKAGEFSQEQYERN	4.66
YGETDFHKQDGKAGTFSQEQYERN	4.55
YGETDFHKQDGKAGAFSQEQYERN	4.39
YGETDFHKQDGKAGCFSQEQYERN	4.38
YGETDFHKQDGKAGWFSQEQYERN	3.8
YGETDFHKQDGKAGNFSQEQYERN	4.5
YGETDFHKQDGKAGVFSQEQYERN	4.18
YGETDFHKQDGKAGMFSQEQYERN	4.27

Variant	protein stability index
YGETDFHKQDGKAGIFSQEQYERN	4.08
YGETDFHKQDGKAGPFSQEQYERN	4.89
YGETDFHKQDGKAGQFSQEQYERN	4.51
YGETDFSKQDGKAGLFSQEQYERN	4.67
YGETDFYKQDGKAGLFSQEQYERN	2.17
YGETDFPKQDGKAGLFSQEQYERN	4.3
YGETDFTKQDGKAGLFSQEQYERN	4.53
YGETDFQKQDGKAGLFSQEQYERN	4.32
YGETDFRKQDGKAGLFSQEQYERN	4.08
YGETDFVKQDGKAGLFSQEQYERN	4.24
YGETDFNKQDGKAGLFSQEQYERN	4.91
YGETDFWKQDGKAGLFSQEQYERN	3.12
YGETDFHKQIGKAGLFSQEQYERN	1.92
YGETDFHKQCGKAGLFSQEQYERN	2.46
YGETDFHKQGGKAGLFSQEQYERN	3.24
YGETDFHKQKGKAGLFSQEQYERN	3.44
YGETDFHKQEGKAGLFSQEQYERN	3.72
YGETDFHKQYGKAGLFSQEQYERN	2.85
YGETDFHKQHGKAGLFSQEQYERN	2.77
YGETDFHKQPGKAGLFSQEQYERN	3.12
YGETDFHKQMGKAGLFSQEQYERN	1.47
YGETDFHKQSGKAGLFSQEQYERN	2.96
YGETDFHKQRGKAGLFSQEQYERN	3.37
YGETDFHKQFGKAGLFSQEQYERN	2.26

Variant	protein stability index
YGETDFHKQLGKAGLFSQEQYERN	2.09
YGETDFHKQNGKAGLFSQEQYERN	3.92
YGETDFHKQVGKAGLFSQEQYERN	2
YGETDFHKQQGKAGLFSQEQYERN	2.9
YGETDFHKQWGKAGLFSQEQYERN	2.27
YGETDFHKQTGKAGLFSQEQYERN	3.04
YGETDFHKQDGPAGLFSQEQYERN	4.38
YGETDFHKQDGVAGLFSQEQYERN	4.49
YGETDFHKQDGCAGLFSQEQYERN	4.35
YGETDFHKQDGNAGLFSQEQYERN	4.78
YGETDFHKQDGMAGLFSQEQYERN	4.14
YGETDFHKQDGGAGLFSQEQYERN	4.19
YGETDFHKQDGTAGLFSQEQYERN	4.5
YGETDFHKQDGQAGLFSQEQYERN	4.21
YGETDFHKQDGWAGLFSQEQYERN	3.21
YGETDFHKQDGDAGLFSQEQYERN	4.86
YGETDFHKQDGLAGLFSQEQYERN	3.66
YGETDFHKQDGFAGLFSQEQYERN	4.21
YGETDFHKQDGSAGLFSQEQYERN	4.86
YGETDFHKQDGEAGLFSQEQYERN	4.82
YGETDFHKQDGAAGLFSQEQYERN	4.25
YGETDFHKQDGRAGLFSQEQYERN	4.1
YGETDFHKQDGYAGLFSQEQYERN	3.99
YGETDFHKQDGHAGLFSQEQYERN	4.28

Variant	protein stability index
YGETDFHKQDGIAGLFSQEQYERN	3.93
YGETDFHKQDGKAGLVSQEQYERN	4.65
YGETDFHKQDGKAGLKSQEQYERN	4.38
YGETDFHKQDGKAGLLSQEQYERN	4.47
YGETDFHKQDGKAGLQSQEQYERN	5.1
YGETDFHKQDGKAGLASQEQYERN	4.97
YGETDFHKQDGKAGLISQEQYERN	4.58
YGETDFHKQDGKAGLESQEQYERN	4.3
YGETDFHKQDGKAGLRSQEQYERN	4.81
YGETDFHKQDGKAGLWSQEQYERN	3.08
YGETDFHKQDGKAGLMSQEQYERN	4.53
YGETDFHKQDGKAGLHSQEQYERN	5.06
YGETDFHKQDGKAGLCSQEQYERN	3.78
YGETDFHKQDGKAGLSSQEQYERN	4.88
YGETDFHKQDGKAGLDSQEQYERN	5.25
YGETDFHKQDGKAGLGSQEQYERN	4.84
YGETDFHKQDGKAGLTSQEQYERN	4.58
YGETDFHKQDGKAGLPSQEQYERN	5.02
YGETDFHKQDGKAGLNSQEQYERN	4.91
YGETDFHKQDGKAGLYSQEQYERN	5.04
